Measured values from paper PMC7363131.

Biological target: S. venezuelae WhiD (SvWhiD), N-terminally His6-tagged, full length (S. venezuelae)
Assay: native MS; nondenaturing ESI-MS, 250 mM ammonium acetate, pH 7.2; SvWhiD alone (10 μM) or a 2:1 mixture of σ^HrdB4 and SvWhiD

- stoichiometry N: 2
Substance: S. venezuelae WhiD (SvWhiD), N-terminally His6-tagged, full length (natural protein)
